Experimental findings from the supplement of paper PMC10567573 are described below.

The nature of the data set: protein stability index of a GFP-peptide fusion (GPS, HEK-293T) (PSI 1-6); higher = more stable. The conditions noted are these: c terminus: a fixed tail appended.

± gives the standard deviation.
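Note: 24-mer peptide tiles fused after GFP, lentivirally expressed, FACS-sorted into six equal bins by GFP/DsRed ratio, decoded by Illumina sequencing, PSI is the read-weighted mean bin number.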

Take SLVKELLRMCSHGEGKINYYNFVR [EFHC1]: the protein stability index is, setting by setting: (treatment: DMSO) 2.31 ± 0.32; (treatment: MLN4924 1 uM, 8 h) 2.46 ± 0.8.

The sequence SMPSYSSCTVTTVQPMDRLPYQHF [TBX5] gave a protein stability index (treatment: DMSO) of 2.56 ± 0.3 and a protein stability index (treatment: MLN4924 1 uM, 8 h) of 2.64 ± 0.17.

In the case of SNPGVDFGDVSERLALRQRLKCRS [GALNT9], the protein stability index is 4.43 ± 0.1 (treatment: DMSO) and 4.56 ± 0.17 (treatment: MLN4924 1 uM, 8 h).

In the case of SPGIGAVYLANQAKNQSDEAKEAK [RTP4], the protein stability index was 5.28 ± 0.22 (treatment: DMSO) and 5.28 ± 0.12 (treatment: MLN4924 1 uM, 8 h).

For SPKTNGHIENGPFSLEQQLDDEDD [SRPK2], the protein stability index runs as follows: (treatment: DMSO) 5.522 ± 0.051; (treatment: MLN4924 1 uM, 8 h) 5.56 ± 0.22.

Regarding SPLLETFSDLQVYSYRRLGEEALS [SLC22A15], the protein stability index is, setting by setting: (treatment: DMSO) 2.44 ± 0.31; (treatment: MLN4924 1 uM, 8 h) 2.27 ± 0.23.

As for SPNYPSKYPPDRECIYIIEAAPRQ [NETO1], the protein stability index by setting is: (treatment: DMSO) 2.58 ± 0.11; (treatment: MLN4924 1 uM, 8 h) 2.77 ± 0.31.

Consider SPVLLGWVEQAYADKCVCGPSAPP [TIAF1], for which the protein stability index is, setting by setting: (treatment: DMSO) 2.67 ± 0.057; (treatment: MLN4924 1 uM, 8 h) 2.86 ± 0.28.

For the sequence SQKDLENDPSVNSQAQETTIIASN [TOR1AIP2], the protein stability index (treatment: DMSO) worked out at 5.37 ± 0.16 and the protein stability index (treatment: MLN4924 1 uM, 8 h) amounted to 5.28 ± 0.29.

Consider SQVPTGEVFYYSCEYNFVSPSKSF [CFHR2], for which the protein stability index was found to be 2.59 ± 0.85 (treatment: DMSO) and 2.08 ± 0.26 (treatment: MLN4924 1 uM, 8 h).

Turning to SRGYAYRDNGHSNRDEHSSRGYRN [RBMY1A1], the protein stability index is, setting by setting: (treatment: DMSO) 4.31 ± 0.16; (treatment: MLN4924 1 uM, 8 h) 4.21 ± 0.12.

SRMKERAIDLNKKGKDNKHPMYRR [ZMYND11]: the protein stability index reads like this: (treatment: DMSO) 4.12 ± 0.2; (treatment: MLN4924 1 uM, 8 h) 4.08 ± 0.46.

Turning to SRPTGQQLESLGLLAPGEQSLPCT [KISS1], the protein stability index (treatment: DMSO) came to 4.29 ± 0.16 and the protein stability index (treatment: MLN4924 1 uM, 8 h) was 4.38 ± 0.25.

SRQRQSRMEKGEPYMSIQPAEDPD [SMARCE1]: the protein stability index came to 5.55 ± 0.11 (treatment: DMSO) and 5.57 ± 0.33 (treatment: MLN4924 1 uM, 8 h).

With SRSSLMPLRNDVDKRGETTSASLL [SLC2A12], the protein stability index (treatment: DMSO) was determined as 4.55 ± 0.15 and the protein stability index (treatment: MLN4924 1 uM, 8 h) turned out to be 4.56 ± 0.11.

As for SSITRQKKRLQELALALKKCKPSL [TMEM120A], the protein stability index runs as follows: (treatment: DMSO) 2.39 ± 0.41; (treatment: MLN4924 1 uM, 8 h) 2.81 ± 0.39.

As to SSPNLQVSSDGTLKYMEVTLRPTD [PCDHGC5], the protein stability index was 3.84 ± 0.092 (treatment: DMSO) and 4.12 ± 0.33 (treatment: MLN4924 1 uM, 8 h).

SSSPASVTTEQLGAKMTERGSVAR [PXN]: the protein stability index reads like this: (treatment: DMSO) 4.86 ± 0.42; (treatment: MLN4924 1 uM, 8 h) 4.76 ± 0.59.

As to SSSYEQFNGELPNGRHKIPESQFP [SRPK2], the protein stability index (treatment: DMSO) stood at 4.1 ± 0.24 and the protein stability index (treatment: MLN4924 1 uM, 8 h) was determined as 4.21 ± 0.22.

For the sequence STSYSPLASLPLKADTKGFCNISL [PLAGL1], the protein stability index runs as follows: (treatment: DMSO) 2.38 ± 0.2; (treatment: MLN4924 1 uM, 8 h) 2.27 ± 0.2.

As to STYYWPRPRRYVQPPEMIGPMRPE [GAGE1], the protein stability index reads like this: (treatment: DMSO) 2.68 ± 0.33; (treatment: MLN4924 1 uM, 8 h) 3.01 ± 0.31.

For SVAHLPWRMLTYKALNTFIDDLFA [CLPTM1], the protein stability index was determined as 2.46 ± 0.25 (treatment: DMSO) and 2.28 ± 0.37 (treatment: MLN4924 1 uM, 8 h).

In the case of SVINNGHNQKVHMHMVDLMSSIIC [PDS5B], the protein stability index was determined as 2.02 ± 0.27 (treatment: DMSO) and 2.53 ± 0.3 (treatment: MLN4924 1 uM, 8 h).

As to SVNEVDFEGRTPMHVACQHGQENI [RIPK4], the protein stability index reads like this: (treatment: DMSO) 4.31 ± 0.27; (treatment: MLN4924 1 uM, 8 h) 4.57 ± 0.076.

Turning to SVNISLDNLLPGMQPSKPQQPSLN [CLINT1], the protein stability index was 3.4 ± 0.23 (treatment: DMSO) and 3.51 ± 0.16 (treatment: MLN4924 1 uM, 8 h).

As for SWSDGMAFCALVHSFFPDAFDYNS [SMTNL2], the protein stability index stood at 2.95 ± 0.65 (treatment: DMSO) and 2.9 ± 0.67 (treatment: MLN4924 1 uM, 8 h).

TACLTDRGIIMTFGSGSNGCLGHG [NEK8] returned a protein stability index (treatment: DMSO) of 2.23 ± 0.2 and a protein stability index (treatment: MLN4924 1 uM, 8 h) of 2.28 ± 0.32.

Take TAPLYKDEKEQLIIPQVPLFNILA [USP39]: the protein stability index is, setting by setting: (treatment: DMSO) 2.15 ± 0.13; (treatment: MLN4924 1 uM, 8 h) 2.09 ± 0.39.

The sequence TDDDGQAPEAKDGSSFSGRVFRVT [APMAP] showed a protein stability index (treatment: DMSO) of 4.94 ± 0.24 and a protein stability index (treatment: MLN4924 1 uM, 8 h) of 4.74 ± 0.23.

As to TDLEMQIESLNEELAYMKKNHEEE [KRT13], the protein stability index was 5.4 ± 0.16 (treatment: DMSO) and 5.433 ± 0.051 (treatment: MLN4924 1 uM, 8 h).

As to TEGFPPGGGNARATGMFLQYTVPG [ZFYVE21], the protein stability index amounted to 3.11 ± 0.16 (treatment: DMSO) and 3.07 ± 0.27 (treatment: MLN4924 1 uM, 8 h).

Consider TEITELRRTLQGLEIELQSQLSMK [KRT13], for which the protein stability index worked out at 2.78 ± 0.27 (treatment: DMSO) and 2.85 ± 0.18 (treatment: MLN4924 1 uM, 8 h).

For TEVITASEFHPHHCNLFVYSSSKG [PPP2R2C], the protein stability index is, setting by setting: (treatment: DMSO) 2.73 ± 0.24; (treatment: MLN4924 1 uM, 8 h) 2.97 ± 0.29.

Turning to TFGPIPEFSRATAEKVNQDMCMKV [CRYL1], the protein stability index reads like this: (treatment: DMSO) 3.9 ± 0.25; (treatment: MLN4924 1 uM, 8 h) 3.94 ± 0.17.

For TFPSGSGAHFPQVPGGAVRVAAAA [PI4K2A], the protein stability index stood at 3.81 ± 0.27 (treatment: DMSO) and 3.81 ± 0.32 (treatment: MLN4924 1 uM, 8 h).

In the case of TGVPGSPGHIGPPGPTGPKGISGH [EMID1], the protein stability index was 4.33 ± 0.3 (treatment: DMSO) and 4.71 ± 0.27 (treatment: MLN4924 1 uM, 8 h).

In the case of TGWFGGGFTSYLGFGDEDTGLELI [MIA2], the protein stability index (treatment: DMSO) was found to be 2.07 ± 0.35.
